Reference: patent US20090208416A1

Experiments:
[1] = biological target: NKG2A on rhesus monkey (Macaca mulatta) NK cells (rhesus monkey (Macaca mulatta)) (UniProt Q9MZJ3); assay: FACS rhesus whole blood, mean over animals
[2] = biological target: NKG2A on rhesus monkey (Macaca mulatta) NK cells (rhesus monkey (Macaca mulatta)) (UniProt Q9MZJ3); assay: FACS rhesus whole blood, animal R99273
[3] = biological target: NKG2A on rhesus monkey (Macaca mulatta) NK cells (rhesus monkey (Macaca mulatta)) (UniProt Q9MZJ3); assay: FACS rhesus whole blood, animal R00077
[4] = biological target: NKG2A on rhesus monkey (Macaca mulatta) NK cells (rhesus monkey (Macaca mulatta)) (UniProt Q9MZJ3); assay: FACS rhesus whole blood, animal R00073 (5.6 kg)
[5] = biological target: NKG2A on rhesus monkey (Macaca mulatta) NK cells (rhesus monkey (Macaca mulatta)) (UniProt Q9MZJ3); assay: FACS rhesus whole blood NK cells, animal MM031
[6] = biological target: NKG2A on rhesus monkey (Macaca mulatta) NK cells (rhesus monkey (Macaca mulatta)) (UniProt Q9MZJ3); assay: FACS rhesus whole blood NK cells, animal N0404
[7] = biological target: NKG2A on rhesus monkey (Macaca mulatta) NK cells (rhesus monkey (Macaca mulatta)) (UniProt Q9MZJ3); assay: FACS rhesus whole blood, animal R00093
[8] = biological target: NKG2A on baboon NK cells (baboon); assay: FACS baboon whole blood NK cells, animal V999
[9] = biological target: NKG2A on cynomolgus monkey NK cells (cynomolgus monkey) (UniProt Q68VD2); assay: FACS cynomolgus whole blood, animal 1221
[10] = biological target: NKG2A on rhesus monkey (Macaca mulatta) NK cells (rhesus monkey (Macaca mulatta)) (UniProt Q9MZJ3); assay: FACS rhesus whole blood, animal 31828
[11] = biological target: NKG2A on cynomolgus monkey NK cells (cynomolgus monkey) (UniProt Q68VD2); assay: FACS cynomolgus whole blood, animal AL389
[12] = biological target: NKG2A on baboon NK cells (baboon); assay: FACS baboon whole blood NK cells, animal V914B
[13] = biological target: NKG2A on cynomolgus monkey NK cells (cynomolgus monkey) (UniProt Q68VD2); assay: FACS cynomolgus whole blood, animal M859
[14] = biological target: NKG2A on baboon NK cells (baboon); assay: FACS baboon whole blood NK cells, animal PA983
[15] = biological target: NKG2A on rhesus monkey (Macaca mulatta) NK cells (rhesus monkey (Macaca mulatta)) (UniProt Q9MZJ3); assay: FACS rhesus whole blood, animal R00025
[16] = biological target: NKG2A on cynomolgus monkey NK cells (cynomolgus monkey) (UniProt Q68VD2); assay: FACS cynomolgus whole blood, animal T270
[17] = biological target: NKG2A on cynomolgus monkey NK cells (cynomolgus monkey) (UniProt Q68VD2); assay: FACS cynomolgus whole blood, animal AK565
[18] = biological target: NKG2A on rhesus monkey (Macaca mulatta) NK cells (rhesus monkey (Macaca mulatta)) (UniProt Q9MZJ3); assay: FACS rhesus whole blood, animal R00037
[19] = biological target: NKG2A on baboon NK cells (baboon); assay: FACS baboon whole blood NK cells, animal V9929
[20] = biological target: NKG2A on baboon NK cells (baboon); assay: FACS baboon whole blood NK cells, animal PA977
[21] = biological target: NKG2A on rhesus monkey (Macaca mulatta) NK cells (rhesus monkey (Macaca mulatta)) (UniProt Q9MZJ3); assay: FACS rhesus whole blood NK cells, mean of 9 animals
[22] = biological target: NKG2A on rhesus monkey (Macaca mulatta) NK cells (rhesus monkey (Macaca mulatta)) (UniProt Q9MZJ3); assay: FACS rhesus whole blood NK cells, animal CH256
[23] = biological target: NKG2A on rhesus monkey (Macaca mulatta) NK cells (rhesus monkey (Macaca mulatta)) (UniProt Q9MZJ3); assay: FACS rhesus whole blood NK cells, animal N0401
[24] = biological target: NKG2A on rhesus monkey (Macaca mulatta) NK cells (rhesus monkey (Macaca mulatta)) (UniProt Q9MZJ3); assay: FACS rhesus whole blood, animal R00055
[25] = biological target: NKG2A on rhesus monkey (Macaca mulatta) NK cells (rhesus monkey (Macaca mulatta)) (UniProt Q9MZJ3); assay: FACS rhesus whole blood, animal O967
[26] = biological target: NKG2A on rhesus monkey (Macaca mulatta) NK cells (rhesus monkey (Macaca mulatta)) (UniProt Q9MZJ3); assay: FACS rhesus whole blood, animal R00061
[27] = biological target: NKG2A on rhesus monkey (Macaca mulatta) NK cells (rhesus monkey (Macaca mulatta)) (UniProt Q9MZJ3); assay: FACS rhesus whole blood, animal R00007
[28] = biological target: NKG2A on rhesus monkey (Macaca mulatta) NK cells (rhesus monkey (Macaca mulatta)) (UniProt Q9MZJ3); assay: FACS rhesus whole blood, animal R00023
[29] = biological target: NKG2A on baboon NK cells (baboon); assay: FACS baboon whole blood NK cells, animal V918C
[30] = biological target: NKG2A on rhesus monkey (Macaca mulatta) NK cells (rhesus monkey (Macaca mulatta)) (UniProt Q9MZJ3); assay: FACS rhesus whole blood NK cells, animal PM021
[31] = biological target: NKG2A on cynomolgus monkey NK cells (cynomolgus monkey) (UniProt Q68VD2); assay: FACS cynomolgus whole blood, animal AL210
[32] = biological target: NKG2A on rhesus monkey (Macaca mulatta) NK cells (rhesus monkey (Macaca mulatta)) (UniProt Q9MZJ3); assay: FACS rhesus whole blood, animal R00085
[33] = biological target: NKG2A on cynomolgus monkey NK cells (cynomolgus monkey) (UniProt Q68VD2); assay: FACS cynomolgus whole blood, mean of 10 animals

Sequence of UniProt Q9MZJ3 (Q9MZJ3 whole entry): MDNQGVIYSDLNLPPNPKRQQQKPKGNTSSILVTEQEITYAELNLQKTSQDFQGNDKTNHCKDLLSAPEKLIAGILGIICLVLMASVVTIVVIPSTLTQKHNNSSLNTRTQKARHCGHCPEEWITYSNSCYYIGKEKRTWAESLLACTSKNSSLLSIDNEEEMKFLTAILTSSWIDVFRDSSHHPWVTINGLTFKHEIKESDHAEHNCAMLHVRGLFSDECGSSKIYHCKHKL
Sequence of UniProt Q68VD2 (Q68VD2 entry or part of it): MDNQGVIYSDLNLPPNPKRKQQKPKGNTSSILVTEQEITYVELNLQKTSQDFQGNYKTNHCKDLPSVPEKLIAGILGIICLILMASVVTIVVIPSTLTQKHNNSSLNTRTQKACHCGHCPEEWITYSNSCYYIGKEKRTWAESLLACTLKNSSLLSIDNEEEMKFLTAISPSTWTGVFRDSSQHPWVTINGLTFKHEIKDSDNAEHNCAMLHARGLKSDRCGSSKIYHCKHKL

% NK+ (Mean) [1]: 0.7%
MFI (Mean) [1]: 0.6
% NK+ [2]: 0.5%
MFI [2]: 0.54
% NK+ [3]: 0.4%
MFI [3]: 0.41
% NK+ [4]: 0.5%
MFI [4]: 0.4
% [5]: 0.4%
% [6]: 0.6%
% NK+ [7]: 1%
MFI [7]: 0.68
% [8]: 0.3%
tot. MFI [8]: 0.2
% NK+ [9]: 0.6%
MFI [9]: 0.53
% NK+ [10]: 0.4%
MFI [10]: 0.65
% NK+ [11]: 0.3%
MFI [11]: 0.63
% [12]: 0.4%
tot. MFI [12]: 1.1
% NK+ [13]: 0.2%
MFI [13]: 0.51
% [14]: 0.1%
tot. MFI [14]: 0.7
% NK+ [15]: 0.7%
MFI [15]: 0.45
% NK+ [16]: 0.2%
MFI [16]: 0.54
% NK+ [17]: 0.6%
MFI [17]: 0.66
% NK+ [18]: 0.6%
MFI [18]: 0.5
% [19]: 0.3%
tot. MFI [19]: 0.2
% [20]: 0.9%
tot. MFI [20]: 1.1
% (Mean) [21]: 0.7%
% [22]: 0.8%
% [23]: 0.5%
% NK+ [24]: 0.6%
MFI [24]: 0.7
% NK+ [25]: 0.5%
MFI [25]: 0.67
% NK+ [26]: 0.5%
MFI [26]: 0.5
% NK+ [27]: 1.5%
MFI [27]: 0.52
% NK+ [28]: 0.3%
MFI [28]: 0.5
% [29]: 0.3%
tot. MFI [29]: 1.1
% [30]: 0.8%
% NK+ [31]: 0.4%
MFI [31]: 0.65
% NK+ [32]: 0.9%
MFI [32]: 0.7
% NK+ (Mean) [33]: 0.3%
MFI (Mean) [33]: 0.6
Substance: mouse IgG1 isotype control (antibody)
